Measured values published in patent publication US10683329B2, “Dual-site BACE1 inhibitors” (priority 2014, dated 2020).
*1 amine or outer side, *2 acyl side, *3 side chain or, on linkers, in order; H or OH if unused. Where a SMILES comes first, the peptide text is derived from it. Where no end group is shown, it is not given here. [ ]: non-standard residue; d: D form. The star is where a group is joined. Succinyl(4-O-cholesteryl) = CC(C)CCC[C@@H](C)[C@H]1CC[C@H]2[C@@H]3CC=C4C[C@@H](OC(=O)CCC(=O)*)CC[C@]4(C)[C@H]3CC[C@]12C; MetSta(3S,4S) = CSCC[C@H](N[*:1])[C@@H](O)CC(=O)[*:2]; Sta = CC(C)C[C@H](N)[C@@H](O)CC(=O)O; PEG3 = NCCOCCOCCOCCC(=O)O; Ava = NCCCCC(=O)O; βAla = NCCC(=O)O

B1: Tyr-Pro-Tyr-Phe-Ile-Pro-Leu-Gly-Gly-Gly-Gly-Glu-Val-Asn-Sta-Val-Ala-Glu-DPro-Lys(Chol)-NH2 x TFA (peptide)
peptide: YPYFIPLGGGGEVN[Sta]VAE[dP]K(Chol)-NH2
modifications: also: TFA salt
B2: Tyr-Pro-Lys-Phe-Ile-Pro-Leu-Gly-DLys-Gly-Glu-Val-Asn-Leu*Ala-Ala-Glu-DPro-Lys(Chol'ester')-NH2 x 3TFA (peptide)
peptide: YPKFIPLG[dK]GEVNLAAE[dP]K(Chol'ester')-NH2
modifications: also: Leu14*Ala15 Tang hydroxyethylene dipeptide isostere, trifluoroacetate salt (x 3TFA)
B3: Tyr-Pro-Tyr-Phe-DLys-Pro-Leu-Gly-DLys-Gly-Glu-Val-Asn-Sta-Val-Ala-Glu-DPro-Lys(Chol'ester')-NH2 x 3TFA (peptide)
peptide: YPYF[dK]PLG[dK]GEVN[Sta]VAE[dP]K(Chol'ester')-NH2
modifications: also: x 3TFA salt
B4: Tyr-Pro-Tyr-Phe-Ile-Pro-Leu-NH(CH2)2CO-Glu-Val-Asn-Sta-Val-Ala-Glu-DPro-Lys(Chol)-NH2 x TFA (peptide)
peptide: YPYFIPL[βAla]EVN[Sta]VAE[dP]K(Chol)-NH2
modifications: also: TFA salt
B5: Tyr-Pro-Tyr-Phe-Ile-Pro-Leu-Gly-Gly-Gly-Gly-Glu-Val-Asn-Sta-Asp-Ala-Glu-DPro-Lys(Chol)-NH2 x TFA (peptide)
peptide: YPYFIPLGGGGEVN[Sta]DAE[dP]K(Chol)-NH2
modifications: also: x TFA salt
B6: Tyr-Pro-Tyr-Phe-Ile-Pro-Leu-Ser-Gly-Gly-Glu-Val-Asn-Sta-Val-Ala-Glu-DPro-Lys(Chol'ester')-NH2 x TFA (peptide)
peptide: YPYFIPLSGGEVN[Sta]VAE[dP]K(Chol'ester')-NH2
modifications: also: TFA salt
B7: Tyr-Pro-Tyr-Phe-Ile-Pro-Leu-Gly-DAla-Gly-Glu-Val-Asn-Sta-Val-Ala-Glu-DPro-Lys(Chol'ester')-NH2 x TFA (peptide)
peptide: YPYFIPLG[dA]GEVN[Sta]VAE[dP]K(Chol'ester')-NH2
modifications: also: x TFA salt
B8: Tyr-Pro-Tyr-Phe-Ile-Pro-Leu-DAla-Gly-Gly-Glu-Val-Asn-Sta-Val-Ala-Glu-DPro-Lys(Chol'ester')-NH2 x TFA (peptide)
peptide: YPYFIPL[dA]GGEVN[Sta]VAE[dP]K(Chol'ester')-NH2
modifications: also: x TFA salt
B9: Tyr-DLys-Tyr-Phe-Ile-Pro-Leu-Gly-DLys-Gly-Glu-Val-Asn-Sta-Val-Ala-Glu-DPro-Lys(Chol'ester')-NH2 x 3TFA (peptide)
peptide: Y[dK]YFIPLG[dK]GEVN[Sta]VAE[dP]K(Chol'ester')-NH2
modifications: also: x 3TFA salt
B10: Tyr-Pro-Tyr-Phe-Ile-Pro-Leu-NH(CH2)4CO-Glu-Val-Asn-Sta-Val-Ala-Glu-DPro-Lys(Chol)-NH2 x TFA (peptide)
peptide: YPYFIPL[Ava]EVN[Sta]VAE[dP]K(Chol)-NH2
modifications: also: TFA salt
B11: DLys-Pro-Tyr-Phe-Ile-Pro-Leu-Gly-DLys-Gly-Glu-Val-Asn-Sta-Val-Ala-Glu-DPro-Lys(Chol'ester')-NH2 x 3TFA (peptide)
peptide: [dK]PYFIPLG[dK]GEVN[Sta]VAE[dP]K(Chol'ester')-NH2
modifications: also: x 3TFA salt
B12: Tyr-Pro-DLys-Phe-Ile-Pro-Leu-Gly-DLys-Gly-Glu-Val-Asn-Sta-Val-Ala-Glu-DPro-Lys(Chol'ester')-NH2 x 3TFA (peptide)
peptide: YP[dK]FIPLG[dK]GEVN[Sta]VAE[dP]K(Chol'ester')-NH2
modifications: also: x 3TFA salt
B13: Tyr-Pro-Tyr-Phe-Ile-Pro-Leu-Gly-Gly-Gly-Gly-Gly-Glu-Val-Asn-Sta-Val-Ala-Glu-DPro-Lys(Chol)-NH2 x TFA (peptide)
peptide: YPYFIPLGGGGGEVN[Sta]VAE[dP]K(Chol)-NH2
modifications: also: TFA salt
B14: Tyr-Pro-Lys-Phe-Ile-Pro-Leu-Gly-DLys-Gly-Glu-Val-Asn-MetSta-Val-Ala-Glu-Pro-Lys(Chol'ester')-NH2 x 3TFA (peptide)
peptide: YPKFIPLG[dK]GEVN[MetSta(3S,4S)]VAEPK(Chol'ester')-NH2
modifications: also: x 3TFA salt
B15: Tyr-Pro-Tyr-Phe-Ile-DLys-Leu-Gly-DLys-Gly-Glu-Val-Asn-Sta-Val-Ala-Glu-DPro-Lys(Chol'ester')-NH2 x 3TFA (peptide)
peptide: YPYFI[dK]LG[dK]GEVN[Sta]VAE[dP]K(Chol'ester')-NH2
modifications: also: x 3TFA salt
B16: Tyr-Pro-Tyr-Phe-Ile-Pro-DLys-Gly-DLys-Gly-Glu-Val-Asn-Sta-Val-Ala-Glu-DPro-Lys(Chol'ester')-NH2 x 3TFA (peptide)
peptide: YPYFIP[dK]G[dK]GEVN[Sta]VAE[dP]K(Chol'ester')-NH2
modifications: also: x 3TFA salt
B17: Tyr-Pro-Tyr-Phe-Ile-Pro-Lys-Gly-DLys-Gly-Glu-Val-Asn-Sta-Val-Ala-Glu-DPro-Lys(Chol'ester')-NH2 x 3TFA (peptide)
peptide: YPYFIPKG[dK]GEVN[Sta]VAE[dP]K(Chol'ester')-NH2
modifications: also: 3TFA salt
B18: Tyr-Pro-Tyr-DLys-Ile-Pro-Leu-Gly-DLys-Gly-Glu-Val-Asn-Sta-Val-Ala-Glu-DPro-Lys(Chol'ester')-NH2 x 3TFA (peptide)
peptide: YPY[dK]IPLG[dK]GEVN[Sta]VAE[dP]K(Chol'ester')-NH2
modifications: also: x 3TFA salt

Key:
BACE1 = molecular target: T1, BACE1 (Homo sapiens, UniProt P56817); assay: Cellular Aβ-lowering assay (Aβ40 ELISA of culture supernatant); assay type: cell-based; settings: Aβ40 in supernatant of human HEK293 cells stably transfected with human APP wt (APP695); 18-20 hrs incubation; read-out: IC 50
T1 construct: Human HEK293 cells which are stably transfected with a vector expressing a cDNA of the human APP wt gene (APP695); endogenous in cells; host or cells: HEK293 (human), stably transfected with human APP695 wt
Experimental: The compounds were investigated in accordance with the test given hereinafter.
Cellular Aβ-Lowering Assay:
Human HEK293 cells which are stably transfected with a vector expressing a cDNA of the human APP wt gene (APP695) were used to assess the potency of the compounds in a cellular assay. The cells were seeded in 96-well microtiter plates in cell culture medium (Iscove, plus 10% (v/v) fetal bovine serum, glutamine, penicillin/streptomycin) to about 80% confluence and the compounds were added at a 10× concentration in 1/10 volume of medium without FCS containing 8% DMSO (final concentration of DMSO was kept at 0.8% v/v). After 18-20 hrs incubation at 37° C. and 5% CO2 in a humidified incubator the culture supernatant was harvested for the determination of Aβ40 concentrations. 96 well ELISA plates (e.g., Nunc MaxiSorb) were coated with monoclonal antibody which specifically recognize the C-terminal end of Aβ40 (Brockhaus et al., NeuroReport 9; 1481-1486; 1998). After blocking of non-specific binding sites with e.g. 1% BSA and washing, the culture supernatants were added in suitable dilutions together with a horseradish peroxidase-coupled Aβ detection antibody (e.g., antibody 4G8, Senetek, Maryland Heights, Mo.) and incubated for 5 to 7 hrs. Subsequently the wells of the microtiter plate were washed extensively with Tris-buffered saline containing 0.05% Tween 20 and the assay was developed with tetramethylbenzidine/H2O2 in citric acid buffer. After stopping the reaction with one volume 1 N H2SO4 the reaction was measured in an ELISA reader at 450 nm wavelength. The concentrations of Aβ in the culture supernatants were calculated from a standard curve obtained with known amounts of pure Aβ peptide.

BACE1 enzyme = BACE1 enzyme (UniProt P56817 46-501, limits assumed); assay: cell-based or functional assay
Sequence of BACE1 enzyme (P56817 46-501 limits assumed): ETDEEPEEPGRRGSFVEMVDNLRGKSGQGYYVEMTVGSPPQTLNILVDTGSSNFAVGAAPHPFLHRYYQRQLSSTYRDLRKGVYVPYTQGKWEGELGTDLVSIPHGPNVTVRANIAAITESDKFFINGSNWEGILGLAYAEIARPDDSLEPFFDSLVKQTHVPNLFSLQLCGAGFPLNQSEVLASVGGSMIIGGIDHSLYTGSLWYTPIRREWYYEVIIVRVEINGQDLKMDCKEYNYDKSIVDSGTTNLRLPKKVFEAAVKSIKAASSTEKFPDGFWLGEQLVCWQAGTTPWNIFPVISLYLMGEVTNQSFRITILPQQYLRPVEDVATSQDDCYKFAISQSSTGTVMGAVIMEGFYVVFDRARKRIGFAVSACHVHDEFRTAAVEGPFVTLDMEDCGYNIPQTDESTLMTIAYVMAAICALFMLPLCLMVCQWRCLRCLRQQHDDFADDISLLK

T1 sequence (P56817 46-501): as the sequence (P56817 46-501 limits assumed) above

Molecule	IC50 (BACE1)	IC50, cellular Aβ-lowering assay (Aβ40 in supernatant of HEK293 cells expressing human APP695) (BACE1 enzyme)
CC[C@H](C)[C@H](NC(=O)[C@H](Cc1ccccc1)NC(=O)[C@H](Cc1ccc(O)cc1)NC(=O)[C@@H]1CCCN1C(=O)[C@@H](N)Cc1ccc(O)cc1)C(=O)N1CCC[C@H]1C(=O)N[C@@H](CC(C)C)C(=O)NCCOCCOCCOCCC(=O)N[C@@H](CCC(=O)O)C(=O)N[C@H](C(=O)N[C@@H](CC(N)=O)C(=O)N[C@@H](CC(C)C)[C@@H](O)CC(=O)N[C@H](C(=O)N[C@@H](C)C(=O)N[C@@H](CCC(=O)O)C(=O)N1CCC[C@@H]1C(=O)N[C@@H](CCCCNC(=O)CCC(=O)O[C@H]1CC[C@@]2(C)C(=CC[C@H]3[C@@H]4CC[C@H]([C@H](C)CCCC(C)C)[C@@]4(C)CC[C@@H]32)C1)C(N)=O)C(C)C)C(C)C [Example 13, Tyr-Pro-Tyr-Phe-Ile-Pro-Leu-PEG(3)-Glu-Val-Asn-Sta-Val-Ala-Glu-DPro-Lys(Chol)-NH2] (H-YPYFIPL[PEG3]EVN[Sta]VAE[dP]K(Succinyl(4-O-cholesteryl))-NH2)	0.043 nM	
CC[C@H](C)[C@H](NC(=O)[C@H](Cc1ccccc1)NC(=O)[C@H](Cc1ccc(O)cc1)NC(=O)[C@@H]1CCCN1C(=O)[C@@H](N)Cc1ccc(O)cc1)C(=O)N1CCC[C@H]1C(=O)N[C@@H](CC(C)C)C(=O)N[C@@H](CO)C(=O)NCC(=O)NCC(=O)N[C@@H](CCC(=O)O)C(=O)N[C@H](C(=O)N[C@@H](CC(N)=O)C(=O)N[C@@H](CC(C)C)[C@@H](O)CC(=O)N[C@H](C(=O)N[C@@H](C)C(=O)N[C@@H](CCC(=O)O)C(=O)N1CCC[C@@H]1C(=O)N[C@@H](CCCCNC(=O)CCC(=O)O[C@H]1CC[C@@]2(C)C(=CC[C@H]3[C@@H]4CC[C@H]([C@H](C)CCCC(C)C)[C@@]4(C)CC[C@@H]32)C1)C(N)=O)C(C)C)C(C)C [Example 54, Tyr-Pro-Tyr-Phe-Ile-Pro-Leu-Ser-Gly-Gly-Glu-Val-Asn-Sta-Val-Ala-Glu-DPro-Lys(Chol′ester′)-NH2] (H-YPYFIPLSGGEVN[Sta]VAE[dP]K(Succinyl(4-O-cholesteryl))-NH2)	0.052 nM	
CC[C@H](C)[C@H](NC(=O)[C@H](Cc1ccccc1)NC(=O)[C@H](Cc1ccc(O)cc1)NC(=O)[C@@H]1CCCN1C(=O)[C@@H](N)Cc1ccc(O)cc1)C(=O)N1CCC[C@H]1C(=O)N[C@@H](CC(C)C)C(=O)NCC(=O)NCC(=O)NCC(=O)NCC(=O)N[C@@H](CCC(=O)O)C(=O)N[C@H](C(=O)N[C@@H](CC(N)=O)C(=O)N[C@@H](CCSC)[C@@H](O)CC(=O)N[C@H](C(=O)N[C@@H](C)C(=O)N[C@@H](CCC(=O)O)C(=O)N[C@H](Cc1ccccc1)C(=O)N[C@@H](CCCCNC(=O)CCC(=O)O[C@H]1CC[C@@]2(C)C(=CC[C@H]3[C@@H]4CC[C@H]([C@H](C)CCCC(C)C)[C@@]4(C)CC[C@@H]32)C1)C(N)=O)C(C)C)C(C)C [Example 24, Tyr-Pro-Tyr-Phe-Ile-Pro-Leu-Gly-Gly-Gly-Gly-Glu-Val-Asn-MetSta-Val-Ala-Glu-DPhe-Lys(Chol)-NH2]	0.052 nM	
B1		0.042 nM
B2		0.039 nM
B3		7.6 nM
B4		2.8 nM
B5		3.3 nM
B6		0.052 nM
B7		0.02 nM
B8		0.055 nM
B9		3.4 nM
B10		0.84 nM
B11		0.013 nM
B12		0.78 nM
B13		0.044 nM
B14		0.061 nM
B15		0.45 nM
B16		0.0059 nM
B17		0.012 nM
B18		6.5 nM
